Biological target: T1, GST-PIF3 (Arabidopsis thaliana, UniProt O80536 1-524)
T1 construct: coding region with an NdeI site before the first ATG and an XhoI site at its 3' end, NdeI/XhoI fragment cloned into pGEX4T-2; source: E. coli BL21, purified (Glutathione Sepharose 4B)
T1 sequence (looked up): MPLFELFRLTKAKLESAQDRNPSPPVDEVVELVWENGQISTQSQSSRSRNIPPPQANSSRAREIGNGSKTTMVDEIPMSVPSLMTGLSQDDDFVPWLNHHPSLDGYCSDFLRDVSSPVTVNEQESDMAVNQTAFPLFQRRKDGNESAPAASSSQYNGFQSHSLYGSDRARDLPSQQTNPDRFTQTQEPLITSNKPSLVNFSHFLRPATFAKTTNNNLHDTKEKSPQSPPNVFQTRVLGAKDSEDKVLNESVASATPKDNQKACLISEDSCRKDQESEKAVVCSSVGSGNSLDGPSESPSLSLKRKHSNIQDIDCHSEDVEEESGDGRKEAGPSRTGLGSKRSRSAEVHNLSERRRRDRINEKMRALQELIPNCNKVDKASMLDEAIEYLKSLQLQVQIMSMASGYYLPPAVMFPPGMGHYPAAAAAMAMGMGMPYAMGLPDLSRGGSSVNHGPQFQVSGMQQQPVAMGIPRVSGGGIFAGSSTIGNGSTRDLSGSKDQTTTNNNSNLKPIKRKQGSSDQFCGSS
Experiment: pull-down; GST or GST-PIF3 bound to Glutathione Sepharose 4B beads, incubated with His-MPK6 in 50 mM Tris-HCl pH 7.5, 100 mM NaCl, 0.02% Triton X-100 at 4 °C for 2 h; immunoblot with anti-GST and anti-His
Settings: both partners purified

B1: His-MPK6 (enzyme, Arabidopsis thaliana, UniProt Q39026 1-395, looked up)
chain: MDGGSGQPAADTEMTEAPGGFPAAAPSPQMPGIENIPATLSHGGRFIQYNIFGNIFEVTAKYKPPIMPIGKGAYGIVCSAMNSETNESVAIKKIANAFDNKIDAKRTLREIKLLRHMDHENIVAIRDIIPPPLRNAFNDVYIAYELMDTDLHQIIRSNQALSEEHCQYFLYQILRGLKYIHSANVLHRDLKPSNLLLNANCDLKICDFGLARVTSESDFMTEYVVTRWYRAPELLLNSSDYTAAIDVWSVGCIFMELMDRKPLFPGRDHVHQLRLLMELIGTPSEEELEFLNENAKRYIRQLPPYPRQSITDKFPTVHPLAIDLIEKMLTFDPRRRITVLDALAHPYLNSLHDISDEPECTIPFNFDFENHALSEEQMKELIYREALAFNPEYQQ
notes: coding region amplified from seedling cDNA with an NdeI site before the first ATG, NdeI/SalI fragment cloned into pET28a(+); The NdeI site of pET28a(+) would put the His tag at the N-terminus (surmised); source: E. coli BL21, purified (Ni2+-chelating Sepharose Fast Flow)
binding result: binds

Source: publication PMC5853512, “Arabidopsis MKK10-MPK6 mediates red-light-regulated opening of seedling cotyledons through phosphorylation of PIF3” (Journal of Experimental Botany, 2017)
